According to US20190322730A1:
Positions count from the first letter of the chain named. One block for each binder: values may come before it.

Experiments:
Assay in all cases: binding screen of Example 5; method and unit not stated
iC3b = iC3b (UniProt P01024)
C3c = C3c (UniProt P01024)
C3b (human) = C3b (human) (UniProt P01024)
C3b (human), sequence (P01024 23-667 limits assumed, chain 1 of 2): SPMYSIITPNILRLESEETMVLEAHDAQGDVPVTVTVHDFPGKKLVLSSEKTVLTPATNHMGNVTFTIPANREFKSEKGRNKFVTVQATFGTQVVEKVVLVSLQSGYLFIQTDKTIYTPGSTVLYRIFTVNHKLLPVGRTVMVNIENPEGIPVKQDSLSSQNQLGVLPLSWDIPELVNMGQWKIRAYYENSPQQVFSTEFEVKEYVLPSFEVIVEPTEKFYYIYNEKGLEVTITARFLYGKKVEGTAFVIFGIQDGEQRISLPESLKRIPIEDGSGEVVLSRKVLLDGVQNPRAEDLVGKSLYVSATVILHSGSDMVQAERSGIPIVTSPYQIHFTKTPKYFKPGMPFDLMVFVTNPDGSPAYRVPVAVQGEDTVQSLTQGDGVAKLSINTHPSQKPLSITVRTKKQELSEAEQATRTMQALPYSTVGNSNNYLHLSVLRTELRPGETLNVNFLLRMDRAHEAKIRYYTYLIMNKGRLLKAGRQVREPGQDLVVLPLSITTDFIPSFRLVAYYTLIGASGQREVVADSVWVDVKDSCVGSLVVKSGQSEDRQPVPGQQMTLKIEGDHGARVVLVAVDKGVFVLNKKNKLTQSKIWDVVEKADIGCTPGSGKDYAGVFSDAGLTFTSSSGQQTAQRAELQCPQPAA
C3b (human), sequence (P01024 749-1663 limits assumed, chain 2 of 2): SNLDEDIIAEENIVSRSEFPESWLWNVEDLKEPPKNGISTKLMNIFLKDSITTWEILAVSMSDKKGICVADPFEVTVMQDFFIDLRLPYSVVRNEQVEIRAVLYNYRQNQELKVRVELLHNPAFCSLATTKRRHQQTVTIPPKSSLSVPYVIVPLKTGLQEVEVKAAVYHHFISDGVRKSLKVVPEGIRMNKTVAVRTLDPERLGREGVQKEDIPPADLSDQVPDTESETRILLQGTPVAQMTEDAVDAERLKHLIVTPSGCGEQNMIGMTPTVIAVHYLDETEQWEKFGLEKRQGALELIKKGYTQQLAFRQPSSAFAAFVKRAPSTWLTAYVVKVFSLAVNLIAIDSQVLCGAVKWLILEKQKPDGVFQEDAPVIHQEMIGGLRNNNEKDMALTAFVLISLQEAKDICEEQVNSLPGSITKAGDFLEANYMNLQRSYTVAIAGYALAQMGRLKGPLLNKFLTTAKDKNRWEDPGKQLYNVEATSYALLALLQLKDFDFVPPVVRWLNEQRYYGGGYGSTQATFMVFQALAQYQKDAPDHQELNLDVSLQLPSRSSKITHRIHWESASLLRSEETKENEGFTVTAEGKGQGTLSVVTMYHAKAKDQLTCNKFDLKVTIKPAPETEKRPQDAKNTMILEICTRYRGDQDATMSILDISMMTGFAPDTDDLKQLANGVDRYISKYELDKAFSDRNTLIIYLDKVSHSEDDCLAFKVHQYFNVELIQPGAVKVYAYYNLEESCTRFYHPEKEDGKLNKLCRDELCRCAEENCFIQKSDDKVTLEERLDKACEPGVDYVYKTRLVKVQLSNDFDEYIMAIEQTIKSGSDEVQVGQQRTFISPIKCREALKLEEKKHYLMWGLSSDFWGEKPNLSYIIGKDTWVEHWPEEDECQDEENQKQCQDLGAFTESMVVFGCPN

B1: antibody 38F5 (antibody, V domains shown)
VH: EVMLVESGGALVKPGGSLKLSCTASGFTFSNYAMSWVRQTPEKRLEWVAQTISSGGRYTYYPDSVKGRFTISRDNARNTLYLQMSSLRSEDTAMYYCVRRYYGNSYWYFDVWGAGTTVTVSS
VL: DIVMTQSPSSLSVSAGEKVTMNCKSSQSLLNSGNQKHYLTWYQQKPGQPPKLLIYGASTRGSGVPDRFTGSGSGTDFTLTISSVQAEDLAVYYCQNDHSYPYTFGGGTKLEIK
binding relative to negative control mIgG2 (iC3b): 0.45
binding relative to negative control mIgG2 (C3c): 0.45

B2: antibody 3G8 (antibody, V domains shown)
VH: EIQLQQSGAELVKPGASVKISCMASGYSFTGYNMNWVKQSHGKGLEWIGNINPYYDSTSYNQKFKGKATLTVDKSSSTAYMQLNSLTSEDSAVYYCARENYDFVGFAYWGQGTLVTVSA
VL: QIVLSQSPAILSASPGEKVTMTCRASSSVSYMHWFQQKPGSSPKPWIYVTSNLASGVPPRFSGSGSGTSYSLTISRVEAEDAATYYCQQWSTNPLTFGAGTKLELK
binding relative to negative control mIgG2 (iC3b): 0.25
binding relative to negative control mIgG2 (C3c): 0.22

B3: antibody 38G10 (antibody, V domains shown)
VH: EVQLQQSGPELVKPGDSVKMSCKASGYTFTDFYMDWVKQSHGKSLEWIGYIYPHNGGTTYNQNFTGKATLTVDKSSNTAYMELHSLTSEDSAVYYCARRGGFDFDYWGQGTTLTVSS
VL: NIVMTQSPKSMSLSVGERVTLRCKASENVDTYVSWYQQKPEQSPKLLIYGASNRYTGVPDRFTGSGSATEFTLTISSVQAEDLVGYHCGQSHSYPLTFGAGTKLELK
binding relative to negative control mIgG2 (C3b (human)): 0.06
binding relative to negative control mIgG2 (iC3b): 0.06
binding relative to negative control mIgG2 (C3c): 0.13

B4: antibody 3D8 (antibody, V domains shown)
VH: EIQLQQSGAELVKPGASVKISCKASGYSFTGYNMNWVKQSHGKSLEWIGNINPYYGSTNYNQKFKGKATLTVDKSSTTAYMQLDSLTSEDSAVYYCARGYYGGNYPFAYWGQGTLVTVSA
VL: DIQMTQSPASLSASVGETVTITCRASENIYSYLAWYQQKQGKSPQLLVYNAKTLAEGVPSRFSGSGSGTQFSLKINSLQPEDFGSYYCQHYYGTPYTFGGGSKVEIK
binding relative to negative control mIgG2 (iC3b): 0.29
binding relative to negative control mIgG2 (C3c): 0.17

Results, then the binder that gave them:

binding relative to negative control mIgG2 (iC3b): 0.72
binding relative to negative control mIgG2 (C3c): 0.55
B5: antibody 63A3 (antibody, V domains shown)
VH: DVQLQESGPGLVKPSQSLSLTCSVTGYSITSGYYWNWIRQFPGNKLEWMGYIRYDGSNNYNPSLKNRISITRDTSKNQVFLKLNSVTPEDTATYYCARHYGYDGGAFDFWGQGTTLTVSS
VL: B4 VL with A25T, S31N, A34V, A55E, I75V, Y91H, Y96F, G100S, S102T, V104L

binding relative to negative control mIgG2 (iC3b): 0.49
binding relative to negative control mIgG2 (C3c): 0.43
B6: antibody 62F2 (antibody, V domains shown)
VH: DVQLQESGPDLVKPSQSLSLTCTVTGYSITSGYSLHWIRQFPGNKLEWMGYIHYSGSTNYNPSLKSRISITRDTSKNQFFLKLNSVTSEDTATYHCARAWDYLDYWGQGTTLTVSS
VL: DIQMTQSPASLSASVGETVTITCRASENIYSQLAWYQQKQGKSPQLLVYDAKTLAEGVPSRFSGSGSDTQFSLKIISLQPEDFGRYYCHHHFGILYTFGGGTKLEMK
